These are literature values, as cited in PMC4650670.

This data set deals with actin (Oryctolagus cuniculus) (UniProt P68135).

For the substance “nebulin repeat fragment (from UniProt P20929)”, the Kd (in general, the constant that tells how readily two partners part at equilibrium) was 220 µM.
